Measured values taken from PMC9839807 (2022).

B1: DACT1 (dishevelled binding antagonist of beta catenin 1), wildtype, Myc-tagged [human] / DVL2 (dishevelled segment polarity protein 2), Flag(3x)-tagged [not stated] (parent complex)
chain 1: MKPSPAGTAKELEPPAPARGEQRTAEPEGRWREKGEADTERQRTRERQEATLAGLAELEYLRQRQELLVRGALRGAGGAGAAAPRAGELLGEAAQRSRLEEKFLEENILLLRKQLNCLRRRDAGLLNQLQELDKQISDLRLDVEKTSEEHLETDSRPSSGFYELSDGASGSLSNSSNSVFSECLSSCHSSTCFCSPLEATLSLSDGCPKSADLIGLLEYKEGHCEDQASGAVCRSLSTPQFNSLDVIADVNPKYQCDLVSKNGNDVYRYPSPLHAVAVQSPMFLLCLTGNPLREEDRLGNHASDICGGSELDAVKTDSSLPSPSSLWSASHPSSSKKMDGYILSLVQKKTHPVRTNKPRTSVNADPTKGLLRNGSVCVRAPGGVSQGNSVNLKNSKQACLPSGGIPSLNNGTFSPPKQWSKESKAEQAESKRVPLPEGCPSGAASDLQSKHLPKTAKPASQEHARCSAIGTGESPKESAQLSGASPKESPSRGPAPPQENKVVQPLKKMSQKNSLQGVPPATPPLLSTAFPVEERPALDFKSEGSSQSLEEAHLVKAQFIPGQQPSVRLHRGHRNMGVVKNSSLKHRGPALQGLENGLPTVREKTRAGSKKCRFPDDLDTNKKLKKASSKGRKSGGGPEAGVPGRPAGGGHRAGSRAHGHGREAVVAKPKHKRTDYRRWKSSAEISYEEALRRARRGRRENVGLYPAPVPLPYASPYAYVASDSEYSAECESLFHSTVVDTSEDEQSNYTTNCFGDSESSVSEGEFVGESTTTSDSEESGGLIWSQFVQTLPIQTVTAPDLHNHPAKTFVKIKASHNLKKKILRFRSGSLKLMTTV
chain 2: MAGSSTGGGGVGETKVIYHLDEEETPYLVKIPVPAERITLGDFKSVLQRPAGAKYFFKSMDQDFGVVKEEISDDNARLPCFNGRVVSWLVSSDNPQPEMAPPVHEPRAELAPPAPPLPPLPPERTSGIGDSRPPSFHPNVSSSHENLEPETETESVVSLRRERPRRRDSSEHGAGGHRTGGPSRLERHLAGYESSSTLMTSELESTSLGDSDEEDTMSRFSSSTEQSSASRLLKRHRRRRKQRPPRLERTSSFSSVTDSTMSLNIITVTLNMEKYNFLGISIVGQSNERGDGGIYIGSIMKGGAVAADGRIEPGDMLLQVNDMNFENMSNDDAVRVLRDIVHKPGPIVLTVAKCWDPSPQAYFTLPRNEPIQPIDPAAWVSHSAALTGTFPAYPGSSSMSTITSGSSLPDGCEGRGLSVHTDMASVTKAMAAPESGLEVRDRMWLKITIPNAFLGSDVVDWLYHHVEGFPERREARKYASGLLKAGLIRHTVNKITFSEQCYYVFGDLSGGCESYLVNLSLNDNDGSSGASDQDTLAPLPGATPWPLLPTFSYQYPAPHPYSPQPPPYHELSSYTYGGGSASSQHSEGSRSSGSTRSDGGAGRTGRPEERAPESKSGSGSESEPSSRGGSLRRGGEASGTSDGGPPPSRGSTGGAPNLRAHPGLHPYGPPPGMALPYNPMMVVMMPPPPPPVPPAVQPPGAPPVRDLGSVPPELTASRQSFHMAMGNPSEFFVDVM

Variants of: B1
Assay: co-immunoprecipitation (IP: anti-Myc), band ratio quantified; parent: 1; read off a plot

Variant	response
chain 1 L823R	~0.6
chain 1 K630N	~0.68
chain 1 L591F	~0.7
chain 1 G644D	~0.72

The next lines start with the values.

response	Variant
~0.69	chain 1 R568K
~0.69	chain 1 P669A
~0.72	chain 1 T367K
